Key:
Design in all cases: EC50 of β-arrestin-1 recruitment to the receptor (NanoBiT, HEK293T, agonist mode) (M (inferred, not given)) / EC50 of β-arrestin-1 recruitment to CCR3 (NanoBiT, HEK293T, agonist mode) (M (inferred, not given)) / EC50 of β-arrestin-1 recruitment to CCR5 (NanoBiT, HEK293T, agonist mode) (M (inferred, not given)): unit not given beside the values
[1] = biological target: T1, human CCR3 on Ready-to-Assay Chem-1 cells (human) (UniProt P51677)
T1 sequence: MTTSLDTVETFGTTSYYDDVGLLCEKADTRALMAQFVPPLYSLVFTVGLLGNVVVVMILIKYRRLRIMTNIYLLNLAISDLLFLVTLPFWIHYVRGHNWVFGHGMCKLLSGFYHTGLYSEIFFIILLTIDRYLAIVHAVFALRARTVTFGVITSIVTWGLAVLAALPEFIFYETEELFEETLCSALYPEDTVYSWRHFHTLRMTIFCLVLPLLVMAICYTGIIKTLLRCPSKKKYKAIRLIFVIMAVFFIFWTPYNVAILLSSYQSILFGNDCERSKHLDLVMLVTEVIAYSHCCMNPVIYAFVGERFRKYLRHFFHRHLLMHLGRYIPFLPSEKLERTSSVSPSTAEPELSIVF

[2] = biological target: WT CCR5 C-terminally fused to SmBiT (human) (UniProt P51681)
[3] = biological target: T2, WT CCR3 C-terminally fused to SmBiT (human) (UniProt P51677)
T2 sequence: T1 sequence

[4] = biological target: T3, human CCR10 on Ready-to-Assay Chem-1 cells (human) (UniProt P46092)
T3 sequence: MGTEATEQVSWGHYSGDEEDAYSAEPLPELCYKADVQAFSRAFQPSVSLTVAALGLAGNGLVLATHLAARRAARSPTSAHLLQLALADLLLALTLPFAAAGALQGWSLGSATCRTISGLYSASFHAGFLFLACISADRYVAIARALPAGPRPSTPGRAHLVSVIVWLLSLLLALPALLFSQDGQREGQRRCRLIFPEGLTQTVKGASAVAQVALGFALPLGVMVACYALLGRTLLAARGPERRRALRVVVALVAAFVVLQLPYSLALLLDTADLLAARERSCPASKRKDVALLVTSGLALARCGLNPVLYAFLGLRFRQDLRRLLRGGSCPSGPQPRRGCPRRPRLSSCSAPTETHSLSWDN

[5] = biological target: WT CXCR4 C-terminally fused to SmBiT (human) (UniProt P61073)

Q: With “CCL28 ∆1 (∆S) (ligand; in M (unit assumed))” as the molecule, how does the EC50 of calcium flux in Chem-1 cells expressing the receptor (M (inferred, not given)) [1] read?
A: Its EC50 of calcium flux in Chem-1 cells expressing the receptor (M (inferred, not given)) is 1.72e-07.

Q: vMIP-II R7I/K10T/L13F (ligand) was tested. Which EC50 of β-arrestin-1 recruitment to CCR5 (NanoBiT, HEK293T, agonist mode) (M (inferred, not given)) [2] did it give?
A: Its EC50 of β-arrestin-1 recruitment to CCR5 (NanoBiT, HEK293T, agonist mode) (M (inferred, not given)) is 1.08e-07.

Q: What about the EC50 of β-arrestin-1 recruitment to CCR3 (NanoBiT, HEK293T, agonist mode) (M (inferred, not given)) [3] of the same molecule?
A: Its EC50 of β-arrestin-1 recruitment to CCR3 (NanoBiT, HEK293T, agonist mode) (M (inferred, not given)) is 1.11e-09.

Q: With CCL28 ∆3 (∆SEA) (ligand) as the molecule, how does the EC50 of calcium flux in Chem-1 cells expressing the receptor (row labelled WT CCR3 in the sheet, taken as CCR10) [4] read?
A: The EC50 of calcium flux in Chem-1 cells expressing the receptor (row labelled WT CCR3 in the sheet, taken as CCR10) was 32 nM.

Q: Which EC50 of β-arrestin-1 recruitment to CCR3 (NanoBiT, HEK293T, agonist mode) (M (inferred, not given)) [3] does the source give for vMIP-II L13F (ligand) here?
A: The EC50 of β-arrestin-1 recruitment to CCR3 (NanoBiT, HEK293T, agonist mode) (M (inferred, not given)) was 5.34e-10.

Q: With vMIP-II K10T (ligand) as the molecule, how does the EC50 of β-arrestin-1 recruitment to CCR3 (NanoBiT, HEK293T, agonist mode) (M (inferred, not given)) [3] read?
A: Its EC50 of β-arrestin-1 recruitment to CCR3 (NanoBiT, HEK293T, agonist mode) (M (inferred, not given)) is 5.84e-10.

Q: How did the EC50 of calcium flux in Chem-1 cells expressing the receptor (M (inferred, not given)) [1] turn out when “CCL28 ∆4 (∆SEAI) (ligand; in M (unit assumed))” was run?
A: Its EC50 of calcium flux in Chem-1 cells expressing the receptor (M (inferred, not given)) is 2.79e-08.

Q: For CCL28 ∆1 (∆S) (ligand), which EC50 of calcium flux in Chem-1 cells expressing the receptor (row labelled WT CCR3 in the sheet, taken as CCR10) [4] is on record?
A: Its EC50 of calcium flux in Chem-1 cells expressing the receptor (row labelled WT CCR3 in the sheet, taken as CCR10) is 170 nM.

Q: How did the EC50 of calcium flux in Chem-1 cells expressing the receptor (row labelled WT CCR3 in the sheet, taken as CCR10) [4] turn out when CCL28 ∆4 (∆SEAI) (ligand) was run?
A: The EC50 of calcium flux in Chem-1 cells expressing the receptor (row labelled WT CCR3 in the sheet, taken as CCR10) was 390 nM.

Q: “CCL5 (from UniProt P13501 24-91) (ligand)” was tested. Which β-arrestin-1 recruitment to the receptor (NanoBiT, HEK293T, agonist mode): mean peak activity, no single EC50 (fold untreated) [2] did it give?
A: The β-arrestin-1 recruitment to the receptor (NanoBiT, HEK293T, agonist mode): mean peak activity, no single EC50 (fold untreated) was 16.5.

Q: With “CCL28 ∆2 (∆SE) (ligand; in M (unit assumed))” as the molecule, how does the EC50 of calcium flux in Chem-1 cells expressing the receptor (M (inferred, not given)) [1] read?
A: The EC50 of calcium flux in Chem-1 cells expressing the receptor (M (inferred, not given)) was 5.46e-08.

Q: Which EC50 of β-arrestin-1 recruitment to the receptor (NanoBiT, HEK293T, agonist mode) [5] does the source give for “CXCL12 (from UniProt P48061 22-93) (ligand)” here?
A: The EC50 of β-arrestin-1 recruitment to the receptor (NanoBiT, HEK293T, agonist mode) was 1.41 nM.

Q: Which EC50 of β-arrestin-1 recruitment to the receptor (NanoBiT, HEK293T, agonist mode) (M (inferred, not given)) [2] does the source give for “CCL4 (from UniProt P13236 24-92) (ligand; in M (unit assumed))” here?
A: The EC50 of β-arrestin-1 recruitment to the receptor (NanoBiT, HEK293T, agonist mode) (M (inferred, not given)) was 1.45e-07.

Q: How did the EC50 of β-arrestin-1 recruitment to CCR3 (NanoBiT, HEK293T, agonist mode) (M (inferred, not given)) [3] turn out when vMIP-II R7I (ligand) was run?
A: The EC50 of β-arrestin-1 recruitment to CCR3 (NanoBiT, HEK293T, agonist mode) (M (inferred, not given)) was 3.79e-10.

Q: For “CCL3 (from UniProt P10147 24-92) (ligand; in M (unit assumed))”, which EC50 of β-arrestin-1 recruitment to the receptor (NanoBiT, HEK293T, agonist mode) (M (inferred, not given)) [2] is on record?
A: Its EC50 of β-arrestin-1 recruitment to the receptor (NanoBiT, HEK293T, agonist mode) (M (inferred, not given)) is 4.12e-08.

Q: “CCL28 ∆3 (∆SEA) (ligand; in M (unit assumed))” was tested. Which EC50 of calcium flux in Chem-1 cells expressing the receptor (M (inferred, not given)) [1] did it give?
A: The EC50 of calcium flux in Chem-1 cells expressing the receptor (M (inferred, not given)) was 5.22e-08.

Q: With CCL28 ∆2 (∆SE) (ligand) as the molecule, how does the EC50 of calcium flux in Chem-1 cells expressing the receptor (row labelled WT CCR3 in the sheet, taken as CCR10) [4] read?
A: The EC50 of calcium flux in Chem-1 cells expressing the receptor (row labelled WT CCR3 in the sheet, taken as CCR10) was 29 nM.

B1: WT CCL28 (ligand)
chain: SEAILPIASSCCTEVSHHISRRLLERVNMCRIQRADGDCDLAAVILHVKRRRICVSPHNHTVKQWMKVQAAKKNGKGNVCHRKKHHGKRNSNRAHQGKHETYGHKTPY
Q: Which EC50 of calcium flux in Chem-1 cells expressing the receptor (row labelled WT CCR3 in the sheet, taken as CCR10) [4] does the source give for B1 here?
A: Its EC50 of calcium flux in Chem-1 cells expressing the receptor (row labelled WT CCR3 in the sheet, taken as CCR10) is 230 nM.

Q: And the EC50 of calcium flux in Chem-1 cells expressing the receptor (M (inferred, not given)) [1]?
A: The EC50 of calcium flux in Chem-1 cells expressing the receptor (M (inferred, not given)) was 1.42e-07.

B2: viral macrophage inflammatory protein II (vMIP-II) (ligand)
chain: GDTLGASWHRPDKCCLGYQKRPLPQVLLSSWYPTSQLCSKPGVIFLTKRGRQVCADKSKDWVKKLMQQLPVTAR
Q: B2 was tested. Which EC50 of β-arrestin-1 recruitment to CCR3 (NanoBiT, HEK293T, agonist mode) (M (inferred, not given)) [3] did it give?
A: The EC50 of β-arrestin-1 recruitment to CCR3 (NanoBiT, HEK293T, agonist mode) (M (inferred, not given)) was 1.35e-09.
